Source: US11827699 (dated 2023)
Substitutions are numbered along the chain they refer to. Read-outs that look alike come from different tables or passages of the source.

Tests used:
Assay in all cases: SPR
human FcγRIa [1] = molecular target: T1, human FcγRIa (human, UniProt P12314)
T1 chain: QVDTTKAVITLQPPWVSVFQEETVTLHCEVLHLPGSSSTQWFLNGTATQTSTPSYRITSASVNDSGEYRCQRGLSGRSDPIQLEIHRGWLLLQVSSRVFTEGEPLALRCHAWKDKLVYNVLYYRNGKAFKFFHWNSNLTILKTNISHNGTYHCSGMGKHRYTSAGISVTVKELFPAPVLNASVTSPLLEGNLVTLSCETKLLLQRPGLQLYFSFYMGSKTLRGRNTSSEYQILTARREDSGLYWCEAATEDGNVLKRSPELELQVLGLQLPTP

human FcγRIIb [2] = molecular target: T2, human FcγRIIb (human, UniProt P31994)
T2 chain: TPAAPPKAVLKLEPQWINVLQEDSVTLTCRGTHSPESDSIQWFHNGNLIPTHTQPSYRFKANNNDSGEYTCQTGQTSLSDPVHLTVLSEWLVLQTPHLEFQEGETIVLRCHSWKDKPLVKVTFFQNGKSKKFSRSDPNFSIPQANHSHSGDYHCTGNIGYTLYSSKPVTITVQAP

human FcγRIIb [3] = molecular target: T2, human FcγRIIb
human FcγRIIa R131 [4] = molecular target: T3, human FcγRIIa R131 (human, UniProt P12318)
T3 chain: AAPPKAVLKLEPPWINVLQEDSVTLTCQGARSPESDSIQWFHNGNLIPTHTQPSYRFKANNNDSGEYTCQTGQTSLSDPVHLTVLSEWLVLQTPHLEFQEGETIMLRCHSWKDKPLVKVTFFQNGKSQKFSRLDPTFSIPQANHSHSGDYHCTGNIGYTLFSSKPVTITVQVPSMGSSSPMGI

human FcγRIa [5] = molecular target: T1, human FcγRIa
human FcγRIIb [6] = molecular target: T2, human FcγRIIb
human FcγRIIa R131 [7] = molecular target: T3, human FcγRIIa R131
human FcγRIa [8] = molecular target: T1, human FcγRIa

B1: IL6R-BP267 (antibody)
chain 1: QVQLQESGPGLVKPSETLSLTCAVSGHSISHDHAWSWVRQPPGEGLEWIGFISYSGITNYNPSLQGRVTISRDNSKNTLYLQMNSLRAEDTAVYYCARSLARTTAMDYWGEGTLVTVSSASTKGPSVFPLAPSSKSTSGGTAALGCLVKDYFPEPVTVSWNSGALTSGVHTFPAVLQSSGLYSLSSVVTVPSSSLGTQTYICNVNHKPSNTKVDKKVEPKSCDKTHTCPPCPAPDLLGDDSVFLFPPKPKDTLMISRTPEVTCVVVDVSEEDGEVKFNWYVDGVEVHNAKTKPREEQYNSTYRVVSVLTVLHQDWLNGKEYKCKVSNKALPAPIEKTISKAKGQPREPQVYTLPPSRDELTKNQVSLTCLVKGFYPSDIAVEWESNGQPENNYKTTPPVLDSDGSFFLYSKLTVDKSRWQQGNVFSCSVMHEALHNHYTQESLSLSP
chain 2: not shown
- Kd (human FcγRIa [1]): 4 nM

B2: IL6R-BP464 (antibody)
chain 1: B1 chain 1 with S269A, A332R, P398Y
chain 2: not shown
- Kd (human FcγRIIb [2]): 4 nM

B3: IL6R-BP468 (antibody)
chain 1: B1 chain 1 with E270D, Y298D, A332R, K336T
chain 2: not shown
- Kd (human FcγRIIb [3]): 40 nM

B4: IL6R-BP469 (antibody)
chain 1: B1 chain 1 with E270D, Y298D, A332R, E335S
chain 2: not shown
- Kd (human FcγRIIa R131 [4]): 600 nM

B5: IL6R-BP456 (antibody)
chain 1: B1 chain 1 with S269A, A332R, P398M
chain 2: not shown
- Kd (human FcγRIa [5]): 0.6 nM

B6: IL6R-BP367 (antibody)
chain 1: B1 chain 1 with E271D
chain 2: not shown
- Kd (human FcγRIIb [6]): 100 nM

B7: IL6R-BP223 (antibody)
chain 1: B1 chain 1 with D235E, L236Y, E270D, K328A, A332R
chain 2: not shown
- Kd (human FcγRIIa R131 [7]): 600 nM

B8: IL6R-BP455 (antibody)
chain 1: B1 chain 1 with S269A, A332R, P398L
chain 2: not shown
- Kd (human FcγRIIb [2]): 4 nM

B9: IL6R-BP384 (antibody)
chain 1: B1 chain 1 with E270D, Y298D, A332R, K336R
chain 2: not shown
- Kd (human FcγRIa [8]): 3 nM

B10: IL6R-BP447 (antibody)
chain 1: B1 chain 1 with S269A, A332R, P398A
chain 2: not shown
- Kd (human FcγRIa [5]): 0.9 nM

B11: IL6R-BP350 (antibody)
chain 1: B1 chain 1 with S269E
chain 2: not shown
- Kd (human FcγRIIb [6]): 100 nM
